Assay [1] addresses T1, hα9/mL1-EGFP (human, UniProt Q13797 30-1035).
T1 construct: an offset must be applied; also called L1 loop region variant of human α9-EGFP; not shown: EGFP from pEGFP-N1 vector (Clontech) fused to the C-terminal (cytoplasmic region)
T1 chain: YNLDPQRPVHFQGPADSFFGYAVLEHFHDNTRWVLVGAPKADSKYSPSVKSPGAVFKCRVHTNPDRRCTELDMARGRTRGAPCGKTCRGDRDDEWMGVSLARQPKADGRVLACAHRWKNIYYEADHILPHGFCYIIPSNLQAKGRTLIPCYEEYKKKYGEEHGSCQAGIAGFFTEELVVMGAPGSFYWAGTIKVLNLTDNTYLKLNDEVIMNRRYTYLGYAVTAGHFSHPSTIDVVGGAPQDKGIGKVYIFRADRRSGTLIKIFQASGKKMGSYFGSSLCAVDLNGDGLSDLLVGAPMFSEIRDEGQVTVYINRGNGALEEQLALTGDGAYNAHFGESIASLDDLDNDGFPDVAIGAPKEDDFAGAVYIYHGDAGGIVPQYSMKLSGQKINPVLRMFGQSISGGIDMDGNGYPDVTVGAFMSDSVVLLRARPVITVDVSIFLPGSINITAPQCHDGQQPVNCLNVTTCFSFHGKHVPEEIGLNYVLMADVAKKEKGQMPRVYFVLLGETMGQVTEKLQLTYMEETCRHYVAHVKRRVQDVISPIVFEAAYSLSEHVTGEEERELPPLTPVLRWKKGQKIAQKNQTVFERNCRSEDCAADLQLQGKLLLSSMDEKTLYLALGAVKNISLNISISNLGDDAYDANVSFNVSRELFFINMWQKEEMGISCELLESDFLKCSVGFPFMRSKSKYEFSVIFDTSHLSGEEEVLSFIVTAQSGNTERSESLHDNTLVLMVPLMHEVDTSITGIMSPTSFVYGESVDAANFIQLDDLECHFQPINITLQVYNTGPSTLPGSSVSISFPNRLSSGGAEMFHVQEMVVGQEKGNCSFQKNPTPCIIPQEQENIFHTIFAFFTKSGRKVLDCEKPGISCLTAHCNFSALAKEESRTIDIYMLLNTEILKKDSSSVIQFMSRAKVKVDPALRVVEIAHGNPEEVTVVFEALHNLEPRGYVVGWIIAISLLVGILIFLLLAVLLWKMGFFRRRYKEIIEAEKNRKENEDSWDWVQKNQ
Kind of assay: Cell ELISA on transiently expressing CHO cells. The method, then: CHO/mα9 and CHO were seeded on a 96 well plate (costar) at 2×10⁴ cells/100 μL/well, and incubated overnight at 37° C., 5% CO₂. The medium was suctioned, and the cells were washed with PBS, and reacted with phage antibody diluted with 1% BSA/PBS. The detection was performed by using horse-radish peroxidase (HRP)-labeled anti-M13 antibody (Amersham) and TMB (SIGMA) in combination. The absorbance at wavelengths 450 nm and 650 nm was measured by a microplate reader (Molecular Devices).
SW480/mα9, SW480/hα9 and SW480 were used as antigens, 1% BSA/PBS containing 5% FBS was used as a dilution solution, an HRP-labeled anti-mouse IgG antibody (ZYMED) was used for detection, and the rest was performed under the same conditions as in Example 4.
Next, analysis by Cell ELISA was performed. Various cells after about 24 hr from gene transfection were collected, and seeded on a 96 well plate at 2×10⁴ cells/100 μL/well. The rest was performed under the same conditions as in Example 11.
A general note: An ELISA detects its analyte on a solid surface through an enzyme-linked reagent.

Assay [2] has as its target T2, mouse α4 integrin (mouse, UniProt Q00651 41-1039).
T2 construct: whole, on cells; Control antigen; also called CHO/mα4
T2 sequence (looked up): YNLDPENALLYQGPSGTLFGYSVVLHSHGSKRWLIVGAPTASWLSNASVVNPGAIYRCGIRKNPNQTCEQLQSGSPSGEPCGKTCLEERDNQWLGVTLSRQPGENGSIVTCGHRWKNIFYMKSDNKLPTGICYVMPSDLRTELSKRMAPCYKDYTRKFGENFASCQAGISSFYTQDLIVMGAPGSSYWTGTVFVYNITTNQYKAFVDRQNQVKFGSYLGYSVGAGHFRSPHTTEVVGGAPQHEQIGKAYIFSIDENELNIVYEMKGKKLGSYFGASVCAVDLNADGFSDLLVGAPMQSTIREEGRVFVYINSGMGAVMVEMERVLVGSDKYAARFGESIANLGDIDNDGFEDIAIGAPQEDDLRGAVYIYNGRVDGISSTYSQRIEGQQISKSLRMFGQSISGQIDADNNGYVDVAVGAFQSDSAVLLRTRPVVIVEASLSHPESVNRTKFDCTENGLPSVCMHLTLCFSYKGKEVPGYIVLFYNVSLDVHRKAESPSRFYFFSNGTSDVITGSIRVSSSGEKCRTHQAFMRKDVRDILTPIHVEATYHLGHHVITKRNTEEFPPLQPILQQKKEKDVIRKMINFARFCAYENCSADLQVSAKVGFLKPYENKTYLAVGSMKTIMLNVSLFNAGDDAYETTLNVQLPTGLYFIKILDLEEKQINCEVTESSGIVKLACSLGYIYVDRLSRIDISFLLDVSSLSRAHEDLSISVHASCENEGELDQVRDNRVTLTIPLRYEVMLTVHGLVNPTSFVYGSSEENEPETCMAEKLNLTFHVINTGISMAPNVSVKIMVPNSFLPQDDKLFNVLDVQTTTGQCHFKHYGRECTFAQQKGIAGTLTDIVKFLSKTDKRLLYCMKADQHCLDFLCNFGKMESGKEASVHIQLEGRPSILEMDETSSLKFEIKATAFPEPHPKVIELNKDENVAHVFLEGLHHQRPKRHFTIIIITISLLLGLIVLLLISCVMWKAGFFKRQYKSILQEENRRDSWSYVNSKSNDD
Kind of assay: flow cytometry on CHO/mα4. The method, then:
As a result, the reactivity with mouse α9 and human α9 was confirmed. Although the reactivity with each of CHO and CHO/mα4 was also assessed in the same manner, the reactivity with mouse α4 was not observed (FIG. 6).
For orientation: In flow cytometry, cells or beads pass a laser one at a time.

B1: MA9-413 scFv-Fc (Fc fusion)
scFv: EVQLVESGGGVVRPGGSLRLSCAASGFAFGDYGMSWVRQAPGKGLEWVSGINWNGGSTGYADSVKGRFTTSRDNAKNSLYLQMNSLRAEDTALYYCARDENYDILTGYYYYGMDVWGQGTTVTVSSGGGGSGGGGSGGGGSQSVVTQPPSVSAAPGQKVTISCSGSSSNIGNNYVSWYQQLPGTAPKLLIYDNNKRPSGIPDRFSASKSGTSATLGITGLQTGDEADYYCGTWDSSLTVWAFGGGTKLTVLG
notes: Divalent scFv-Fc with mouse IgG1 Fc, expressed in CHO-DG44; also called ANM-2; not shown: Fc region of mouse IgG1 and its junction to the scFv
As for B1, the figures for the binding result in assay [1] and in assay [2] were “binds” and “no binding”, respectively.

(Values after patent publication US20110014213A1 (JURIDICAL FDN THE CHEMO SERO THERAP RES INS, published 2011).)
